As usually defined, the tissue uptake is the share of the injected amount in each gram of the tissue.

Structures are written as SMILES.

Data set [1] in a line: PET scanning, tumour to organ/background ratios. The conditions noted are these: Balb/c nude, mouse, in vivo, iv, 1 ug, total radioactivity, PET images 1 h PI, ±SEM, n = 3. The protocol: (§1) All animal experiments were performed with approval from the Peter MacCallum animal ethics committee. Six- to eight-week-old Balb/c nude mice (Animal Resources Centre, Western Australia) were implanted subcutaneously on the right flank with three million AR42J cells (sourced from ATCC). Once the tumours reached a volume >150 mm^3, the animals (n = 3) were injected intravenously with 23–28 MBq [^68Ga(THP-TATE)] (containing 1 μg of THP-TATE). For blocking studies, animals (n = 3) were coinjected with Tyr^3-octreotate peptide (400 μg). For [^68Ga(DOTATATE)], the animals (n = 3) were injected with 8 MBq of the tracer (containing 1 μg of DOTATATE). At 1 h, the animals were anaesthetised and imaged on a Philips MOSAIC small animal PET scanner. The images were reconstructed using a 3D RAMLA algorithm and tracer uptake determined as described previously. On completion of the scan, animals were euthanised and tissues harvested, weighed and radioactivity counted using a gamma counter (Biomedex). Quantitation of PET images was performed using in-house software (MARVn 3.31). Regions of interest were drawn around tissues of interest and uptake ratio calculated as the maximum pixel intensity in the tumour divided by the average uptake in a mediastinal background region, liver or kidneys, as appropriate.

Another data set in a line: Ex vivo biodistribution. The note with it: Balb/c nude, mouse, in vivo, iv, 1 ug, total radioactivity, 1 h PI, ex vivo gamma counting, n = 3, ±SEM. On the procedure: as §1
For data set [2], the system named is SSTR2-positive AR42J tumours. Description: Ex vivo biodistribution. The note with it: 1 h PI, i.v., ex vivo gamma counting; n = 3, ±SEM. The protocol: as §1

For the compound `C[C@@H](O)[C@H](NC(=O)[C@@H]1CSSC[C@H](NC(=O)[C@@H](Cc2ccccc2)NC(=O)CN2CCN(CC(=O)O)CCN(CC(=O)O)CCN(CC(=O)O)CC2)C(=O)N[C@@H](Cc2ccc(O)cc2)C(=O)N[C@H](Cc2c[nH]c3ccccc23)C(=O)N[C@@H](CCCCN)C(=O)N[C@@H]([C@@H](C)O)C(=O)N1)C(=O)O` [[^68Ga(DOTATATE)], metal not drawn], the tissue to tissue ratio at 1 h in data set [1] (Tumour to kidney ratio, maximum tumour pixel intensity / average organ uptake) came out at 5.7 ± 0.2; in data set [1] (Tumour to liver ratio), 27.2 ± 3.9. In addition, the tissue uptake at 1 h in the data set “Ex vivo biodistribution” (AR42J tumour uptake) stood at 14.4 ± 0.8 %ID/g; in the data set “Ex vivo biodistribution” (kidney retention), 5.6 ± 0.5 %ID/g. Besides, the blood retention in data set [2] came out at 0.3 ± 0.1 %ID g^−1.

For the origin of these results see publication PMC4600075, “Rapid kit-based ^68Ga-labelling and PET imaging with THP-Tyr^3-octreotate: a preliminary comparison with DOTA-Tyr^3-octreotate” (EJNMMI Research, 2015).
